Read-outs that look alike come from different tables or passages of the source.

Series [1] deals with the molecule itself. The experiment in a line: SAXS.
Series [2] deals with the molecule itself. Nature of the series: SAXS. The source holds these as a separate data set.

B1: Hemoglobin III (HbIII) from Lucina pectinata, oxy form (natural protein, Lucina pectinata (Phacoides pectinatus), UniProt P41262 1-153, looked up)
chain: MSSGLTGPQKAALKSSWSRFMDNAVTNGTNFYMDLFKAYPDTLTPFKSLFEDVSFNQMTDHPTMKAQALVFCDGMSSFVDNLDDHEVLVVLLQKMAKLHFNRGIRIKELRDGYGVLLRYLEDHCHVEGSTKNAWEDFIAYICRVQGDFMKERL
Usually stoichiometry N stands for the number of molecules, sites or subunits per partner or assembly. Take B1: the “stoichiometry N” value in series [1] was 2; in series [2] it was 4.

The values above are taken from paper PMC8265735 (Biopolymers, 2021).
